Measurements reported in patent US20220062371A1, “LIGAND-DRUG-CONJUGATES AS SUBSTRATES FOR SELECTIVE CLEAVAGE BY THE EXOPEPTIDASE ACTIVITY OF CATHEPSIN B” (DEBIOPHARM RESEARCH & MANUFACTURING S.A., priority 2017, published 2022).

Target: Recombinant human Cathepsin B (human) (UniProt P07858)
Experiment: cell-based or functional assay

T 1/2 of release of AF-Arg by Cat B: < 5 min
Substance: ADC1, AF-Arg-Lys(PEG4-Mal-trastuzumab)-Phe-OH (antibody)
